Assay results reported in patent publication US20240109955A1 (published 2024).

Molecular target: SARS-CoV-2 spike protein, original Wuhan strain (WT) (SARS-CoV-2, UniProt P0DTC2 14-1273)
Experiment: cell-based or functional assay

B1: A19-61.1 (antibody, V domains shown)
VH: QVQLVESGGGVVQPGRSLRLSCAASGFTFSSYAFHWVRQAPGKGLEWVAVISYDGSNQYYADSVKGRFTISRDNSKNTLYLQMNSLRADDTAVYYCARDLAIAVAGTWHYYNGMDVWGQGTTVTVSS
VL: DIQMTQSPSSVSASVGDRVIITCRASQGISSWLAWYQQKPGKAPKVLIYDASSLQSGVPSRFSGSGYGTDFTLTISSLQPEDSATYYCQQAKSFPITFGQGTRLEIK
B1 was tested, and the “IC50, pseudovirus neutralization” value was 0.172 nM.
